What was measured:
Format in all cases: biochemical
[1] = HTP-analysis of yeast culture supernatants, no challenge (MUGal hydrolysis); settings: activity of the variant/activity of WT GLA (SEQ ID NO: 5), yeast supernatant
In short: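 GLA variants expressed in yeast INVSc1, secreted into SD-Ura broth over 66-84 h at 30° C; clarified supernatants tested without challenge. Supernatant mixed with McIlvaine buffer pH 4.8 and 2 mM MUGal (citrate/KCl, pH 4.6), 37° C for 30-180 min, carbonate-quenched, fluorescence Ex 355/Em 448 nm.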

[2] = HTP-analysis of supernatants pretreated with acid (MUGal hydrolysis); settings: challenge at pH 4.2; activity of the variant/activity of WT GLA (SEQ ID NO: 5); yeast supernatant
In short: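 MUGal hydrolysis was tracked by fluorescence (Ex 355 nm, Em 448 nm) after a 30-180 min reaction at 37° C. in pH 4.8 McIlvaine/citrate buffer, stopped with 1 M sodium carbonate. Beforehand, yeast (INVSc1) culture supernatants carrying GLA variants were held 1-3 h at 37° C. in acidic McIlvaine buffer, pH 3.3-4.3.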

[3] = HTP-analysis of supernatants pretreated with base (MUGal hydrolysis); settings: challenge at pH 7.1; activity of the variant/activity of WT GLA (SEQ ID NO: 5); yeast supernatant
In short: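 Supernatants from INVSc1 yeast expressing GLA variants (SD-Ura, 66-84 h, 30° C) were mixed with McIlvaine buffer pH 7.0-8.2 or 200 mM sodium bicarbonate pH 9.1-9.7 and held 1-18 h at 37° C. Residual activity was then measured on MUGal at pH 4.8/4.3, 37° C, 30-180 min, by fluorescence (Ex 355/Em 448 nm).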

| Molecule | Relative Activity of GLA Variants After No Challenge (NC) [1] | Relative Activity of GLA Variants After Challenge at pH 4.2 [2] | Relative Activity of GLA Variants After Challenge at pH 7.1 [3] |
| --- | --- | --- | --- |
| 52 (protein, Synthetic Polypeptide sequence of Variant No. 52 of mature Human GLA) LDNGLARTPTMGWLHWERFMCNLDCQEEPDSCISEKLFMEMAELMVSEGWKDAGYEYLCIDDCWMAPQRDSEGRLQADPQRFPHGIRQLANYVHSKGLKLGIYADVGNKTCAGFPGSFGYYDIDAQTFADWGVDLLKFDGCYCDSLENLADGYKHMSLALNRTGRSIVYSCEWPLYMWPFQKPNYTEIRQYCNHWRNFADIDDSWKSIKSILDWTSDNQERIVDVAGPGGWNDPDMLVIGNFGLSWNQQVTQMALWAIMAAPLFMSNDLRHISPQAKALLQDKDVIAINQDPLGKQGYQLRQGDNFEVWERPLSGLAWAVAMINRQEIGGPRSYTIAVASLGKGVACNPACFITQLLPVKRKLGFYEWTSRLRSHINPTGTVLLQLENTMQMSKDLLL | ++ (++ = >1.5 to 2.5 relative activity over WT GLA (SEQ ID NO: 5)) | + (+ = 0.5 to 1.5 relative activity over WT GLA (SEQ ID NO: 5)) | ++ (++ = >1.5 to 2.5 relative activity over WT GLA (SEQ ID NO: 5)) |
| 53 (protein, Synthetic Polypeptide sequence of Variant No. 53 of mature Human GLA) LDNGLARTPTMGWLHWERFMCNLDCQEEPDSCISEKLFMEMAELMVSEGWKDAGYEYLCIDDCWMAPQRDSEGRLQADPQRFPHGIRQLANYVHSKGLKLGIYADVGNKTCAGFPGSFGYYDIDAQTFADWGVDLLKFDGCYCDSLENLADGYKHMSLALNRTGRSIVYSCEWPLYMWPFQKPNYTEIRQYCNHWRNFADIDDSWKSIKSILDWTSRNQERIVDVAGPGGWNDPDMLVIGNFGLSWNQQVTQMALWAIMAAPLFMSNDLRHISPQAKALLQDKDVIAINQDPLGKQGYQLRQGDNFEVWERPLSGLAWAVAMINRQEIGGPRSYTIAVASLGKGVACNPACFITQLLPVKRKLGFYEWTSRLRSHINPTGTVLLQLENTMQMSKDLLL | + (+ = 0.5 to 1.5 relative activity over WT GLA (SEQ ID NO: 5)) | ++ (++ = >1.5 to 2.5 relative activity over WT GLA (SEQ ID NO: 5)) | ++ (++ = >1.5 to 2.5 relative activity over WT GLA (SEQ ID NO: 5)) |
| 54 (protein, Synthetic Polypeptide sequence of Variant No. 54 of mature Human GLA) LDNGLARTPTMGWLHWERFMCNLDCQEEPDSCISEKLFMEMAELMVSEGWKDAGYEYLCIDDCWMAPQRDSEGRLQADPQRFPHGIRQLANYVHSKGLKLGIYADVGNKTCAGFPGSFGYYDIDAQTFADWGVDLLKFDGCYCDSLENLADGYKHMSLALNRTGRSIVYSCEWPLYMWPFQKPNYTEIRQYCNHWRNFADIDDSWKSIKSILDWTSFNQERIVDVAGPGGWNDPDMLVIGNFGLSWNQQVTQMALWAIMAAPLFMSNDLRHISPQAKALLQDKDVIAINQDPLGKQGYQLRQGDNFEVWERPLSGLAWAVAMINRQEIGGPRSYTIAVASLGKGVACNPACIITQLLPVKRKLGFYEWTSRLRSHINPTGTVLLQLENTMQMSKDLLL | + (+ = 0.5 to 1.5 relative activity over WT GLA (SEQ ID NO: 5)) | + (+ = 0.5 to 1.5 relative activity over WT GLA (SEQ ID NO: 5)) | + (+ = 0.5 to 1.5 relative activity over WT GLA (SEQ ID NO: 5)) |
| 55 (protein, Synthetic Polypeptide sequence of Variant No. 55 of mature Human GLA) LDNGLARTPTMGWLHWERFMCNLDCQEEPDSCISEKLFMEMAELMVSEGWKDAGYEYLCIDDCWMAPQRDSEGRLQADPQRFPHGIRQLANYVHSKGLKLGIYADVGNKTCAGFPGSFGYYDIDAQTFADWGVDLLKFDGCYCDSLENLADGYKHMSLALNRTGRSIVYSCEWPLYMWPFQKPNYTEIRQYCNHWRNFADIDDSWKSIKSILDWTSFNQERIVDVAGPGGWNDPDMLVIGNFGLSWNQQVTQMALWAIMAAPLFMSNDLRHISPQAKALLQDKDVIAINQDPLGKQGYQLRQGDNFEVWERPLSGLAWAVAMINRQEIGGPRSYTIAVASLGKGVACNPACVITQLLPVKRKLGIYEWTSRLRSHINPTGTVLLQLENTMQMSKDLLL | ++ (++ = >1.5 to 2.5 relative activity over WT GLA (SEQ ID NO: 5)) | +++ (+++ = >2.5 relative activity over WT GLA (SEQ ID NO: 5)) | ++ (++ = >1.5 to 2.5 relative activity over WT GLA (SEQ ID NO: 5)) |
| 56 (protein, Synthetic Polypeptide sequence of Variant No. 56 of mature Human GLA) LDNGLARTPTMGWLHWERFMCNLDCQEEPDSCISEKLFMEMAELMVSEGWKDAGYEYLCIDDCWMAPQRDSEGRLQADPQRFPHGIRQLANYVHSKGLKLGIYADVGNKTCAGFPGSFGYYDIDAQTFADWGVDLLKFDGCYCDSLENLADGYKHMSLALNRTGRSIVYSCEWPLYMWPFQKPNYTEIRQYCNHWRNFADIDDSWKSIKSILDWTSFNQERIVDVAGPGGWNDPDMLVIGNFGLSWNQQVTQMALWAIMAAPLFMSNDLRHISPQAKALLQDKDVIAINQDPLGKQGYQLRQGDNFEVWERPLSGLAWAVAMINRQEIGGPRSYTIAVASLGKGVACNPACFITQLLPVKRKLGIYEWTSRLRSHINPTGTVLLQLENTMQMSKDLLL | ++ (++ = >1.5 to 2.5 relative activity over WT GLA (SEQ ID NO: 5)) | ++ (++ = >1.5 to 2.5 relative activity over WT GLA (SEQ ID NO: 5)) | ++ (++ = >1.5 to 2.5 relative activity over WT GLA (SEQ ID NO: 5)) |
| 57 (protein, Synthetic Polypeptide sequence of Variant No. 57 of mature Human GLA) LDNGLARTPTMGWLHWERFMCNLDCQEEPDSCISEKLFMEMAELMVSEGWKDAGYEYLCIDDCWMAPQRDSEGRLQADPQRFPHGIRQLANYVHSKGLKLGIYADVGNKTCAGFPGSFGYYDIDAQTFADWGVDLLKFDGCYCDSLENLADGYKHMSLALNRTGRSIVYSCEWPLYMWPFQKPNYTEIRQYCNHWRNFADIDDSWKSIKSILDWTSFNQERIVDVAGPGGWNDPDMLVIGNFGLSWNQQVTQMALWAIMAAPLFMSNDLRHISPQAKALLQDKDVIAINQDPLGKQGYQLRQGDNFEVWERPLSGLAWAVAMINRQEIGGPRSYTIAVASLGKGVACNPACFITQLLPVKRKLGKYEWTSRLRSHINPTGTVLLQLENTMQMSKDLLL | ++ (++ = >1.5 to 2.5 relative activity over WT GLA (SEQ ID NO: 5)) | ++ (++ = >1.5 to 2.5 relative activity over WT GLA (SEQ ID NO: 5)) | ++ (++ = >1.5 to 2.5 relative activity over WT GLA (SEQ ID NO: 5)) |
| 58 (protein, Synthetic Polypeptide sequence of Variant No. 58 of mature Human GLA) LDNGLARTPTMGWLHWERFMCNLDCQEEPDSCISEKLFMEMAELMVSEGWKDAGYEYLCIDDCWMAPQRDSEGRLQADPQRFPHGIRQLANYVHSKGLKLGIYADVGNKTCAGFPGSFGYYDIDAQTFADWGVDLLKFDGCYCDSLENLADGYKHMSLALNRTGRSIVYSCEWPLYMWPFQKPNYTEIRQYCNHWRNFADIDDSWKSIKSILDWTSFNQERIVDVAGPGGWNDPDMLVIGNFGLSWNQQVTQMALWAIMAAPLFMSNDLRHISPQAKALLQDKDVIAINQDPLGKQGYQLRQGDNFEVWERPLSGLAWAVAMINRQEIGGPRSYTIAVASLGKGVACNPACFITQLLPVKRKLGLYEWTSRLRSHINPTGTVLLQLENTMQMSKDLLL | ++ (++ = >1.5 to 2.5 relative activity over WT GLA (SEQ ID NO: 5)) | ++ (++ = >1.5 to 2.5 relative activity over WT GLA (SEQ ID NO: 5)) | ++ (++ = >1.5 to 2.5 relative activity over WT GLA (SEQ ID NO: 5)) |
| 59 (protein, Synthetic Polypeptide sequence of Variant No. 59 of mature Human GLA) LDNGLARTPTMGWLHWERFMCNLDCQEEPDSCISEKLFMEMAELMVSEGWKDAGYEYLCIDDCWMAPQRDSEGRLQADPQRFPHGIRQLANYVHSKGLKLGIYADVGNKTCAGFPGSFGYYDIDAQTFADWGVDLLKFDGCYCDSLENLADGYKHMSLALNRTGRSIVYSCEWPLYMWPFQKPNYTEIRQYCNHWRNFADIDDSWKSIKSILDWTSFNQERIVDVAGPGGWNDPDMLVIGNFGLSWNQQVTQMALWAIMAAPLFMSNDLRHISPQAKALLQDKDVIAINQDPLGKQGYQLRQGDNFEVWERPLSGLAWAVAMINRQEIGGPRSYTIAVASLGKGVACNPACFITQLLPVKRKLGRYEWTSRLRSHINPTGTVLLQLENTMQMSKDLLL | + (+ = 0.5 to 1.5 relative activity over WT GLA (SEQ ID NO: 5)) | + (+ = 0.5 to 1.5 relative activity over WT GLA (SEQ ID NO: 5)) | + (+ = 0.5 to 1.5 relative activity over WT GLA (SEQ ID NO: 5)) |
